Results: patent US20180250335

Assays:
Assay in all cases: cell_activity
[1] = tested on: TALEN 1R2 (TAPBP exon 2 right arm) (synthetic construct); conditions: as pair 1L2*1R2 in hESCs, puromycin selection; SEQ 28 in the listing is printed reversed
[2] = tested on: TALEN 2R1 (TAP1 exon 1 right arm) (synthetic construct); conditions: as pair 2L3*2R1 in hESCs, puromycin selection; SEQ 24 in the listing is printed reversed
[3] = tested on: TALEN 2L3 (TAP1 exon 1 left arm) (synthetic construct); conditions: as pair 2L3*2R1 in hESCs, puromycin selection; one or two alleles
[4] = tested on: TALEN 1L2 (TAPBP exon 2 left arm) (synthetic construct); conditions: as pair 1L2*1R2 in hESCs, puromycin selection; one or two alleles

CTCTTGGCCAGGCCCTTT (double strand) [TAPBP exon 2 right half-site]
activity (% clones targeted) [1]: 33.3

GGCAAGTCCCGGCAGGG (double strand) [TAP1 exon 1 right half-site]
activity (% clones targeted) [2]: 27.1

TGAAGCCATTAGCTG (double strand) [TAP1 exon 1 left half-site]
activity (% clones targeted) [3]: 27.1

GATCGAGTGTTGGTT (double strand) [TAPBP exon 2 left half-site]
activity (% clones targeted) [4]: 33.3
